This note sets out measurements from patent US20230235304.

Substitutions are numbered along the chain they refer to.

The test system of series [1] is T1, CRISPR nuclease variant K136G,N220R,M380R K136G,N220R,M380R (synthetic construct).
T1 sequence: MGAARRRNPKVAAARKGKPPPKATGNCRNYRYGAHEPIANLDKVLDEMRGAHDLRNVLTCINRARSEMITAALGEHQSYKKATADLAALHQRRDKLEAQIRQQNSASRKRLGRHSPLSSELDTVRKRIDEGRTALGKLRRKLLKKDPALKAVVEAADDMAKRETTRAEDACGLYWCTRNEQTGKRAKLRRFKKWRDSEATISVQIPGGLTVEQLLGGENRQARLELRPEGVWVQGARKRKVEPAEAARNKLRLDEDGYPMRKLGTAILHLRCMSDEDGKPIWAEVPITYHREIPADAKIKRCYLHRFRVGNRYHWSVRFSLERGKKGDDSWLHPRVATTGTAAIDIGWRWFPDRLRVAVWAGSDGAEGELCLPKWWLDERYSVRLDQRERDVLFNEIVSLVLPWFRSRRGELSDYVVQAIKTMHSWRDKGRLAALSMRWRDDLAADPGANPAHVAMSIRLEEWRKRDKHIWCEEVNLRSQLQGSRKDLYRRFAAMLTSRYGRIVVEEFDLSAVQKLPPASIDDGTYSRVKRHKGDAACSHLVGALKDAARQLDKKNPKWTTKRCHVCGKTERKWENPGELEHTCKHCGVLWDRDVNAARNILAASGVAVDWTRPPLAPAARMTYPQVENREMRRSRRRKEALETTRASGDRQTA
As to the kind of experiment: cell_activity. Conditions: PAM 5'-GCTG-3'; HEK293T; averaged over AAVS1, VEGFA, EMX1 targets.

The subject of series [2] is T2, CRISPR nuclease variant L580G,A512R L580G,A512R (synthetic construct).
T2 sequence: T1 sequence with G136K, R220N, R380M, A512R, L580G
As to the kind of experiment: cell_activity. Conditions: PAM 5'-GCTG-3'; HEK293T; averaged over AAVS1, VEGFA, EMX1 targets.

In the case of “GGUCCCAUCGGAACGGGUUGUGGUUCCGACGGAGGGAUACAUUGGUGGGG / GGAGGGATACATTGGTGGGG / CCCCACCAATGTATCCCTCC [AAVS1 crRNA (Table 5) ; AAVS1 target (Table 5)]”, the binding signal (fold indels vs WT) amounted to 4.54 in series [1] and 3.75 in series [2].
